Measurements published in patent US20130022541A1.

What was measured:
HLA-DR [1] = assay: flow cytometry, permeabilized (cytoplasmic), CAG cells
HLA-DR [2] = assay: flow cytometry, permeabilized (cytoplasmic), TU118 cells
HLA-DR [3] = assay: flow cytometry, permeabilized (cytoplasmic), Capan cells + IFN-γ
HLA-DR [4] = assay: flow cytometry, surface, KMS11 cells
HLA-DR [5] = assay: flow cytometry, permeabilized (cytoplasmic), BxPC-3 cells + IFN-γ
HLA-DR [6] = assay: flow cytometry, permeabilized (cytoplasmic), U87 cells
HLA-DR [7] = assay: flow cytometry, surface, LS174T cells
HLA-DR [8] = assay: flow cytometry, surface, Moser cells
HLA-DR [9] = assay: flow cytometry, surface, KMS11 cells + IFN-γ
HLA-DR [10] = assay: flow cytometry, surface, U87 cells + IFN-γ
HLA-DR [11] = assay: flow cytometry, permeabilized (cytoplasmic), LS174T cells + IFN-γ
HLA-DR [12] = assay: flow cytometry, permeabilized (cytoplasmic), U118 cells + IFN-γ
HLA-DR [13] = assay: flow cytometry, surface, TU118 cells
HLA-DR [14] = assay: flow cytometry, surface, RL cells + IFN-γ
HLA-DR [15] = assay: flow cytometry, surface, FSCCL cells
HLA-DR [16] = assay: flow cytometry, permeabilized (cytoplasmic), Lovo cells + IFN-γ
HLA-DR [17] = assay: flow cytometry, surface, HT29 cells
HLA-DR [18] = assay: flow cytometry, permeabilized (cytoplasmic), Panc-1 cells
HLA-DR [19] = assay: flow cytometry, permeabilized (cytoplasmic), FSCCL cells + IFN-γ
HLA-DR [20] = assay: flow cytometry, permeabilized (cytoplasmic), Panc-1 cells + IFN-γ
HLA-DR [21] = assay: flow cytometry, permeabilized (cytoplasmic), KMS11 cells + IFN-γ
HLA-DR [22] = assay: flow cytometry, permeabilized (cytoplasmic), Moser cells
HLA-DR [23] = assay: flow cytometry, permeabilized (cytoplasmic), U87 cells + IFN-γ
HLA-DR [24] = assay: flow cytometry, surface, RL cells
HLA-DR [25] = assay: flow cytometry, surface, U118 cells
HLA-DR [26] = assay: flow cytometry, permeabilized (cytoplasmic), KMS11 cells
HLA-DR [27] = assay: flow cytometry, surface, TU118 cells + IFN-γ
HLA-DR [28] = assay: flow cytometry, surface, Aspc-1 cells
HLA-DR [29] = assay: flow cytometry, surface, Capan-1 cells
HLA-DR [30] = assay: flow cytometry, surface, Capan cells + IFN-γ
HLA-DR [31] = assay: flow cytometry, permeabilized (cytoplasmic), HT29 cells + IFN-γ
HLA-DR [32] = assay: flow cytometry, surface, Aspc-1 cells + IFN-γ
HLA-DR [33] = assay: flow cytometry, permeabilized (cytoplasmic), Moser cells + IFN-γ
HLA-DR [34] = assay: flow cytometry, permeabilized (cytoplasmic), TU118 cells + IFN-γ
HLA-DR [35] = assay: flow cytometry, permeabilized (cytoplasmic), Lovo cells
HLA-DR [36] = assay: flow cytometry, permeabilized (cytoplasmic), RL cells
HLA-DR [37] = assay: flow cytometry, permeabilized (cytoplasmic), BxPC-3 cells
HLA-DR [38] = assay: flow cytometry, surface, BxPC-3 cells
HLA-DR [39] = assay: flow cytometry, permeabilized (cytoplasmic), CAG cells + IFN-γ
HLA-DR [40] = assay: flow cytometry, permeabilized (cytoplasmic), Aspc-1 cells
HLA-DR [41] = assay: flow cytometry, surface, Panc-1 cells
HLA-DR [42] = assay: flow cytometry, permeabilized (cytoplasmic), Aspc-1 cells + IFN-γ
HLA-DR [43] = assay: flow cytometry, permeabilized (cytoplasmic), HT29 cells
HLA-DR [44] = assay: flow cytometry, surface, Lovo cells + IFN-γ
HLA-DR [45] = assay: flow cytometry, surface, LS174T cells + IFN-γ
HLA-DR [46] = assay: flow cytometry, surface, CAG cells
HLA-DR [47] = assay: flow cytometry, surface, Panc-1 cells + IFN-γ
HLA-DR [48] = assay: flow cytometry, surface, U87 cells
HLA-DR [49] = assay: flow cytometry, surface, Moser cells + IFN-γ
HLA-DR [50] = assay: flow cytometry, surface, FSCCL cells + IFN-γ
HLA-DR [51] = assay: flow cytometry, permeabilized (cytoplasmic), U118 cells
HLA-DR [52] = assay: flow cytometry, surface, BxPC-3 cells + IFN-γ
HLA-DR [53] = assay: flow cytometry, permeabilized (cytoplasmic), FSCCL cells
HLA-DR [54] = assay: flow cytometry, permeabilized (cytoplasmic), LS174T cells
HLA-DR [55] = assay: flow cytometry, permeabilized (cytoplasmic), RL cells + IFN-γ
HLA-DR [56] = assay: flow cytometry, surface, HT29 cells + IFN-γ
HLA-DR [57] = assay: flow cytometry, surface, U118 cells + IFN-γ
HLA-DR [58] = assay: flow cytometry, surface, Lovo cells
HLA-DR [59] = assay: flow cytometry, surface, CAG cells + IFN-γ
HLA-DR [60] = assay: flow cytometry, permeabilized (cytoplasmic), Capan-1 cells

flow cytometry fluorescence (HLA-DR [1]): 2320 | flow cytometry fluorescence (HLA-DR [2]): 23.6 | flow cytometry fluorescence (HLA-DR [3]): 253 | flow cytometry fluorescence (HLA-DR [4]): 677 | flow cytometry fluorescence (HLA-DR [5]): 130 | flow cytometry fluorescence (HLA-DR [6]): 102 | flow cytometry fluorescence (HLA-DR [7]): 5.3 | flow cytometry fluorescence (HLA-DR [8]): 4 | flow cytometry fluorescence (HLA-DR [9]): 665 | flow cytometry fluorescence (HLA-DR [10]): 172 | flow cytometry fluorescence (HLA-DR [11]): 42.3 | flow cytometry fluorescence (HLA-DR [12]): 352 | flow cytometry fluorescence (HLA-DR [13]): 5.08 | flow cytometry fluorescence (HLA-DR [14]): 862 | flow cytometry fluorescence (HLA-DR [15]): 1090 | flow cytometry fluorescence (HLA-DR [16]): 989 | flow cytometry fluorescence (HLA-DR [17]): 3.3 | flow cytometry fluorescence (HLA-DR [18]): 22.7 | flow cytometry fluorescence (HLA-DR [19]): 2520 | flow cytometry fluorescence (HLA-DR [20]): 64.1 | flow cytometry fluorescence (HLA-DR [21]): 927 | flow cytometry fluorescence (HLA-DR [22]): 18.2 | flow cytometry fluorescence (HLA-DR [23]): 429 | flow cytometry fluorescence (HLA-DR [24]): 750 | flow cytometry fluorescence (HLA-DR [25]): 6.1 | flow cytometry fluorescence (HLA-DR [26]): 879 | flow cytometry fluorescence (HLA-DR [27]): 93.5 | flow cytometry fluorescence (HLA-DR [28]): 3.2 | flow cytometry fluorescence (HLA-DR [29]): 5.5 | flow cytometry fluorescence (HLA-DR [30]): 66.2 | flow cytometry fluorescence (HLA-DR [31]): 638 | flow cytometry fluorescence (HLA-DR [32]): 15.2 | flow cytometry fluorescence (HLA-DR [33]): 40.5 | flow cytometry fluorescence (HLA-DR [34]): 215 | flow cytometry fluorescence (HLA-DR [35]): 32.5 | flow cytometry fluorescence (HLA-DR [36]): 1060 | flow cytometry fluorescence (HLA-DR [37]): 14.2 | flow cytometry fluorescence (HLA-DR [38]): 2.3 | flow cytometry fluorescence (HLA-DR [39]): 2420 | flow cytometry fluorescence (HLA-DR [40]): 11 | flow cytometry fluorescence (HLA-DR [41]): 4.3 | flow cytometry fluorescence (HLA-DR [42]): 73.6 | flow cytometry fluorescence (HLA-DR [43]): 9.1 | flow cytometry fluorescence (HLA-DR [44]): 276 | flow cytometry fluorescence (HLA-DR [45]): 4.7 | flow cytometry fluorescence (HLA-DR [46]): 1930 | flow cytometry fluorescence (HLA-DR [47]): 4.7 | flow cytometry fluorescence (HLA-DR [48]): 41.9 | flow cytometry fluorescence (HLA-DR [49]): 8.5 | flow cytometry fluorescence (HLA-DR [50]): 1610 | flow cytometry fluorescence (HLA-DR [51]): 24.6 | flow cytometry fluorescence (HLA-DR [52]): 43.8 | flow cytometry fluorescence (HLA-DR [53]): 1470 | flow cytometry fluorescence (HLA-DR [54]): 23.4 | flow cytometry fluorescence (HLA-DR [55]): 1180 | flow cytometry fluorescence (HLA-DR [56]): 298 | flow cytometry fluorescence (HLA-DR [57]): 197 | flow cytometry fluorescence (HLA-DR [58]): 7.3 | flow cytometry fluorescence (HLA-DR [59]): 1810 | flow cytometry fluorescence (HLA-DR [60]): 11.6
B1: hL243γ4P (anti-HLA-DR) (antibody, from a related filing, V domains shown)
VH: QVQLQQSGSELKKPGASVKVSCKASGFTFTNYGMNWVKQAPGQGLKWMGWINTYTREPTYADDFKGRFAFSLDTSVSTAYLQISSLKADDTAVYFCARDITAVVPTGFDYWGQGSLVTVSS
VL: DIQLTQSPSSLSASVGDRVTITCRASENIYSNLAWYRQKPGKAPKLLVFAASNLADGVPSRFSGSGSGTDYTFTISSLQPEDIATYYCQHFWTTPWAFGGGTKLQIKR
